Reference: patent US20200338216A1

Target: murine PDL-1 (murine) (UniProt Q9EP73)
Assay: bead based FACS of purified EVADER vectors with fluorescent-labelled antibody

Sequence of UniProt Q9EP73 (Q9EP73 19-290): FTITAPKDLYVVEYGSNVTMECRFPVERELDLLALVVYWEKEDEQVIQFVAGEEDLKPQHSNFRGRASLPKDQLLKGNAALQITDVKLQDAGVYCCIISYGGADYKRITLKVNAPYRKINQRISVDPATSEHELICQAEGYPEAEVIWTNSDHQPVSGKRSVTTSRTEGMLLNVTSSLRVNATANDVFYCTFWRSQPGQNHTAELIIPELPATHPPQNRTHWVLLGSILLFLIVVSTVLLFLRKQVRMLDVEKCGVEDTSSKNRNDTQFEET

anti-murine PDL-1 (anti-PDL-1-PE-A, Abcam catalog number ab213480) (antibody)
percent of EVADER vector particles positive (level on the surface): 75.3%
